Measurements as given in the supplement of paper PMC12764529.
± gives the half width of the 95% confidence interval.

Columns and labels:
[1] = folding stability dG unfold from trypsin proteolysis; higher = more stable
Method: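 Folding stability of de novo designed mini-proteins (<80 aa, no Cys; designed by TrROS, TrMRF, ProteinMPNN and the joint model) was measured by cDNA display proteolysis with trypsin and chymotrypsin. Each protease was used at 11 concentrations in a threefold dilution series plus a no-protease condition. K50 was inferred by Bayesian fitting of sequencing counts, and dG unfold was derived against a sequence-predicted unfolded-state K50 (Tsuboyama et al. method). Sequences shown include variable-length N-terminal GS-type padding (SAGGSAGG...) inside a display construct carrying a PA tag. Rows were kept only if the AF2 dimer inter-PAE was >15, to exclude likely homo-oligomers.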

[2] = folding stability dG unfold from chymotrypsin proteolysis; higher = more stable
Outline: (§1)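 How resistant each design was to proteolysis was captured as K50, inferred by Bayesian fitting of sequencing counts. Unfolding free energy was then derived relative to a sequence-predicted unfolded-state K50 and a shared folded-state K50, per protease or combined. Digestion used trypsin and chymotrypsin at 11 threefold-diluted concentrations plus a no-protease condition, on mini-proteins under 80 residues without cysteine in a PA-tagged cDNA display construct. Designs were kept only when AlphaFold2 dimer inter-PAE was above 15.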

[3] = folding stability dG unfold (combined trypsin and chymotrypsin); higher = more stable
Outline: as §1

SAGMKEKAIDALKEFFEEEGIKVKKIVIEEKPDGTYKITVYGENGKPIFEIEVPKDVKTSEELKKLIKKSAG [r5_352_TrMRF]
folding stability dG unfold [1]: 2.71 ± 0.52 kcal/mol
folding stability dG unfold [2]: 3.67 ± 0.12 kcal/mol
folding stability dG unfold [3]: 3.61 ± 0.3 kcal/mol

SAGGMTIRVEVFRDGELVETLEFEGSVEELLAKLPPEVTYVRIEVEKDGKTETVEFKTAEELKAALKSSAGG [r13_299_TrROS_Hall]
folding stability dG unfold [1]: 2.13 ± 0.076 kcal/mol
folding stability dG unfold [2]: 3.33 ± 0.067 kcal/mol
folding stability dG unfold [3]: 2.91 ± 0.17 kcal/mol

SAGGSAGGSAMYTISYDPSTGTVTVSTPSGTTTTVPVADGPVTLTVTNPDGTTTTITLEGASAGGSAGGSAG [r3_499_JUSTAS]
folding stability dG unfold [1]: 2.56 ± 0.093 kcal/mol
folding stability dG unfold [2]: 2.42 ± 0.029 kcal/mol
folding stability dG unfold [3]: 2.44 ± 0.068 kcal/mol

SAGGSAGGTLTIDELKELFPDVTEVKIEEKEETYTDKNGKKRKVKTKVIKVKVNGKEVTIEVKESAGGSAGG [r6_138_TrROS_Hall]
folding stability dG unfold [1]: 1.96 ± 0.05 kcal/mol
folding stability dG unfold [2]: 0.534 ± 0.13 kcal/mol
folding stability dG unfold [3]: 1.25 ± 0.19 kcal/mol

SAGVKELAEEIADEFQKPGWQVEVEVDPGDGTITVQMRMPDYQYEIEIKITPENGKPQVDIKWRPPNDSAGG [r19_2_TrROS]
folding stability dG unfold [1]: 1.51 ± 0.16 kcal/mol
folding stability dG unfold [2]: 1.49 ± 0.11 kcal/mol
folding stability dG unfold [3]: 1.56 ± 0.31 kcal/mol

SAGKIKIDVMPPGWFLRIKIEHGGKEQERMIPIPGDSVDEIVKEALDEIQQHFPNKPIKVDIEIYPVDDSAG [r5_180_TrROS]
folding stability dG unfold [1]: 1.03 ± 0.2 kcal/mol
folding stability dG unfold [2]: 1.29 ± 0.37 kcal/mol
folding stability dG unfold [3]: 0.874 ± 0.37 kcal/mol

SAGGGFDLEFVTPDGRRIRVEVKRILSYDPEKGYLVMEVKVTIYHPDKPIEIDGIIVFPPGFPPGAGGSAGG [r13_823_TrMRF]
folding stability dG unfold [1]: 3.6 ± 0.13 kcal/mol
folding stability dG unfold [2]: 4 ± 0.17 kcal/mol
folding stability dG unfold [3]: 3.85 ± 0.12 kcal/mol

SAGGSAGGGTIEIEDPNGVKVEIEIDPDDGYTIIKAFMPDGWVITILMPPEGKIEIETFPLEPPSAGGSAGG [r6_415_TrROS]
folding stability dG unfold [1]: 1.92 ± 0.26 kcal/mol
folding stability dG unfold [2]: 2.96 ± 0.23 kcal/mol
folding stability dG unfold [3]: 2.43 ± 0.35 kcal/mol

SAGGMKKKIVEIEIVEVKYDEETNEVTIKIKIKNENGEEIEIEVTMSKEELEKMTPEELKKLVKELLKSAGG [r13_512_TrROS_Hall]
folding stability dG unfold [1]: 2.16 ± 0.2 kcal/mol
folding stability dG unfold [2]: 2.18 ± 0.24 kcal/mol
folding stability dG unfold [3]: 2.12 ± 0.3 kcal/mol

SAGGSVKIKIKVPKDNPEAKKLAEKLRKLPGVKEVKVKKVKEINGYLVLEIEVEVSPEVKEKLKELLSAGGS [r16_394_TrROS_Hall]
folding stability dG unfold [1]: 2.71 ± 0.25 kcal/mol
folding stability dG unfold [2]: 2.75 ± 0.18 kcal/mol
folding stability dG unfold [3]: 2.97 ± 0.34 kcal/mol

SALEANIKKAEELAKPEEKVPEFPVKVGDLYIKSVRFFPSTKKVVLFLPNGEKIEADPNVTLEEILKAISAG [r14_59_TrMRF]
folding stability dG unfold [1]: 0.759 ± 0.075 kcal/mol
folding stability dG unfold [2]: 0.254 ± 0.13 kcal/mol
folding stability dG unfold [3]: 0.51 ± 0.15 kcal/mol

SAGGKKEKKLTLLFSDPNGKLSLVIEVYKKKDGSYWAVFYNPETGKKEEYKFKSLEELEEAVKELLKKSAGG [r13_857_TrMRF]
folding stability dG unfold [1]: 2.8 ± 0.048 kcal/mol
folding stability dG unfold [2]: 4.579 ± 0.045 kcal/mol
folding stability dG unfold [3]: 4.27 ± 0.077 kcal/mol

SAGGVLETKLPGGVSVTYSETPFVKDGREYLVLPAAAGDPAGAPFVTTTVVEPETGEVLETTETPLASAGGS [r8_492_JUSTAS]
folding stability dG unfold [1]: 0.331 ± 0.059 kcal/mol
folding stability dG unfold [2]: 0.536 ± 0.13 kcal/mol
folding stability dG unfold [3]: 0.465 ± 0.1 kcal/mol

SAGGSAGGSAGETITVKIVRFKPGSPEVRKLAEKLGLSEEEVEPVEVFTFKSEEELKAALSAGGSAGGSAGG [r11_83_TrROS_Hall]
folding stability dG unfold [1]: -0.172 ± 0.12 kcal/mol
folding stability dG unfold [2]: 0.471 ± 0.24 kcal/mol
folding stability dG unfold [3]: 0.374 ± 0.16 kcal/mol

SAGGSKKIVKEMKSKEVIDLAKKLKEKKDIIIVVKLNGKVKVLDLDKVKPIPDKNVKAIIEIKPKKKSAGGS [r16_628_TrMRF]
folding stability dG unfold [1]: 0.571 ± 0.22 kcal/mol
folding stability dG unfold [2]: 0.901 ± 0.094 kcal/mol
folding stability dG unfold [3]: 0.745 ± 0.29 kcal/mol

SKLKPGDIVKLENGEYYRIKKIEISYDKETKEFTIKAEIEPAPPVETETETKTNADGSTETVTKTKVELPSA [r9_914_TrROS_Hall]
folding stability dG unfold [1]: 0.701 ± 0.061 kcal/mol
folding stability dG unfold [2]: 2.366 ± 0.021 kcal/mol
folding stability dG unfold [3]: 1.95 ± 0.042 kcal/mol

SAGGSAGGSPEAPADRKLVALLRSPDSDTVYLVEITPDGIVAYNANNEKTPVSPEYLVAVFDASAGGSAGGS [r20_35_TrMRF]
folding stability dG unfold [1]: 0.883 ± 0.012 kcal/mol
folding stability dG unfold [2]: 1.09 ± 0.054 kcal/mol
folding stability dG unfold [3]: 1.02 ± 0.036 kcal/mol

SAPDVVVVPIKIPPGEMSPSDMIEMIEQAFDQFNWPITPDRIEKLVDKAMKNGDSIWAVIRYLREEGWLSAG [r14_364_TrROS]
folding stability dG unfold [1]: 2.63 ± 0.049 kcal/mol
folding stability dG unfold [2]: 3.022 ± 0.021 kcal/mol
folding stability dG unfold [3]: 2.86 ± 0.076 kcal/mol

SAGGMIEIIPNPPIIIVRDASTNEISVYNIDAPPGSITRVELTSDGSILIYNPATGKVLVLPKSDIKSAGGS [r16_410_TrMRF]
folding stability dG unfold [1]: 1.33 ± 0.043 kcal/mol
folding stability dG unfold [2]: 1.74 ± 0.071 kcal/mol
folding stability dG unfold [3]: 1.62 ± 0.077 kcal/mol

SAGGQRIEIKIKPGYFIMIKIRNPKNGETFRHFIPFKKPQEIEIPIPPNYEIEDIYIMPPKDMPDGMISAGG [r13_119_TrROS]
folding stability dG unfold [1]: 2.11 ± 0.058 kcal/mol
folding stability dG unfold [2]: 2.28 ± 0.09 kcal/mol
folding stability dG unfold [3]: 2.15 ± 0.18 kcal/mol
